# In patent EP4733393A1 (Todo, Tomoki, dated 2026):
# T1: human CTLA-4 (human, UniProt P16410 36-161)
# T1 sequence (looked up): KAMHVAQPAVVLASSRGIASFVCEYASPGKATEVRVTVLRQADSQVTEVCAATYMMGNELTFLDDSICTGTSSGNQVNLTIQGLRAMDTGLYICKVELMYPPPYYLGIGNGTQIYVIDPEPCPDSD
# T2: mouse PD-1 (mouse, UniProt Q02242 25-167)
# T2 sequence (looked up): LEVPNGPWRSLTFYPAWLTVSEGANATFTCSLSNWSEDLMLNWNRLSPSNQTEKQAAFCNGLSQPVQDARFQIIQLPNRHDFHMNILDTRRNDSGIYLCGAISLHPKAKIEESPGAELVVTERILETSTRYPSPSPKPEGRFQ
# What was measured:
# [1] = molecular target: T1, human CTLA-4; assay: AlphaLISA Human CTLA-4/CD80 Binding Kit, inhibition of human CTLA-4/CD80 (B7-1) binding; concentration as human Fc (Fig. 7-3-1 B)
# [2] = molecular target: T2, mouse PD-1; assay: AlphaLISA Mouse PD-1 and PD-L1 Binding Kit, inhibition of mouse PD-1/PD-L1 binding; concentration as human Fc (Fig. 1-3-1 B)
# [3] = molecular target: T1, human CTLA-4; assay: AlphaLISA Human CTLA-4/CD80 Binding Kit, inhibition of human CTLA-4/CD80 (B7-1) binding; concentration as human Fc (Fig. 7-3-2 B)
binder,measurement,setting,value
"anti-human CTLA4 antibody (derived from ipilimumab), expressed from the Ipi/SV-01 plasmid (antibody, human IgG1, kappa, V domains shown, also called antibody encoded by T-Ipi) VH: QVQLVESGGGVVQPGRSLRLSCAASGFTFSSYTMHWVRQAPGKGLEWVTSISYDGNNKYYADSVKGRFTISRDNSKNTLYLQMNSLRAEDTAIYYCARTGWLGPFDYWGQGTLVTVSS VL: not shown",IC50,[1],8.24 ng/mL
"anti-mouse PD-1 antibody (derived from J43) with human IgG4 heavy chain constant region and human λ light chain constant region, expressed from the J43/SV-01 … (antibody, V domains shown, also called antibody encoded by T-J43) VH: EVRLLESGGGLVKPEGSLKLSCVASGFTFSDYFMSWVRQAPGKGLEWVAHIYTKSYNYATYYSGSVKGRFTISRDDSRSMVYLQMNNLRTEDTATYYCTRDGSGYPSLDFWGQGTQVTVSS VL: YELTQPPSASVVGETVKITCSGDQLPKYFADWFHQRSDQTILQVIYDDNKRPSGIPERISGSSSGTTATLTIRDVRAEDEGDYYCFSGYVDSDSKLYVFGSGTQLTVLG",IC50,[2],6.81 ng/mL
"anti-human CTLA4 antibody (derived from ticilimumab), expressed from the Tic/SV-01 plasmid (antibody, human IgG2, kappa, V domains shown, also called antibody encoded by T-Tic; derived from ticilimumab (tremelimumab)) VH: QVQLVESGGGVVQPGRSLRLSCAASGFTFSSYGMHWVRQAPGKGLEWVAVIWYDGSNKYYADSVKGRFTISRDNSKNTLYLQMNSLRAEDTAVYYCARDPRGATLYYYYYGMDVWGQGTTVTVSS VL: DIQMTQSPSSLSASVGDRVTITCRASQSINSYLDWYQQKPGKAPKLLIYAASSLQSGVPSRFSGSGSGTDFTLTISSLQPEDFATYYCQQYYSTPFTFGPGTKVEIKR",IC50,[3],25.4 ng/mL
